From patent publication US7041458B2, “Methods and reagents for determining protein S” (priority 1996, dated 2006)
Read-outs that look alike come from different tables or passages of the source. Bridges are numbered along the chain shown (N, C = ends). Where no end group is shown, it is not given here.

Key:
[1] = target: T1, protein S-C4BP interaction (Homo sapiens, UniProt P20851); experiment: Peptide inhibition of the protein S-C4BP interaction by surface plasmon resonance (BIAcore, immobilized C4BP); format: binding; settings: for inhibition of the protein S-C4BP interaction (summary of the above tests): up to 2000-fold excess over protein S
T1 construct: C4BPβ was first isolated from human plasma in the form of the protein S-C4BP complex; from tissue; host or cells: human plasma
T1 sequence (P20851 18-252): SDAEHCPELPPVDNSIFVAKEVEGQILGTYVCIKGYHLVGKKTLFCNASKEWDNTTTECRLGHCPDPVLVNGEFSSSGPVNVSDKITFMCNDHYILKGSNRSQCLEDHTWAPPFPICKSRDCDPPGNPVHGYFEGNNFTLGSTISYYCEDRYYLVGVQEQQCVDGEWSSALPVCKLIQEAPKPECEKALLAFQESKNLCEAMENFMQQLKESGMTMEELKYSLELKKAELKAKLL
T1 sequence (P04003 49-597 partner): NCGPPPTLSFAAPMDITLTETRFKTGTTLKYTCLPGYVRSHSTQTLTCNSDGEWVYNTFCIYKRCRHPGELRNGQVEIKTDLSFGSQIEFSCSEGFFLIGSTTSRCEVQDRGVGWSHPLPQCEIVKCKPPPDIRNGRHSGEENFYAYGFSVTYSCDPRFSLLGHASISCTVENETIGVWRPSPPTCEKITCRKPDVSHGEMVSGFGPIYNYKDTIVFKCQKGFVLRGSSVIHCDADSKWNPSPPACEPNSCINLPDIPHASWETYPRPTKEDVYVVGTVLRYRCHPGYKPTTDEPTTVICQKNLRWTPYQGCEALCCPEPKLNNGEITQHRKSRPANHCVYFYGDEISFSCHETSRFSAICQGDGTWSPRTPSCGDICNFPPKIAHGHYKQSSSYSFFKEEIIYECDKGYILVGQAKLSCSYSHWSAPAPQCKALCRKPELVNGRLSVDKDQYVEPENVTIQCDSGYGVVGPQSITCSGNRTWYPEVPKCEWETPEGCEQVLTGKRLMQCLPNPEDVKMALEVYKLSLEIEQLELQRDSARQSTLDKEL
Method: E. Peptide Inhibition of the Protein S-C4BP Interaction According to Surface Plasmon Resonance Studies.
The surface plasmon resonance studies were performed using a BIAcore™ apparatus from Pharmacia Biosensor AB. Immobilization of C4BP to the dextran coated gold surface of a sensorchip was performed at a flow rate of 5 μl/min, using HC as flow buffer. Equal volumes of 0.1 M NHS and 0.1 M EDC were first mixed, whereafter 30 μl of the mixture was flown over the sensorchip surface to activate the carboxymethylated dextran. C4BP was then injected over the sensorchip (40 μl of a 60 μg/ml solution in 10 mM NaOAc at pH 4.75), whereafter unreacted NHS-ester groups were blocked by 15 μl 1M ethanolamine (pH 8.5). The system was regenerated by addition of 15 μl 0.1 M HCl, which removes all non-covalently bound molecules. The immobilized amount of C4BP was 8000 RU. Protein S association was monitored with 50 nM human protein S in HC buffer in a continuous flow of 1 μl per minute during 45 minutes. The ability of each peptide to inhibit the protein S binding was studied by following the association to C4BP for mixtures of protein S and peptide. In BIAcore™, the total amount of bound material is measured, and the peptides are 25-fold smaller than protein S, inhibition of protein S-binding by peptide binding will drastically lower the observed response during the association phase. The percent protein S bound, X, was calculated as X=(S−0.04Smax)/0.96Smax where S is the measured response and Smax is the response obtained in the absence of peptide.
As disclosed in Section E, the ability of the synthetic peptides to inhibit the binding of human protein S to C4BP was also studied using surface plasmon resonance on a BIA-core™ system.
(§1) In these figures, peptide inhibition of the protein S-C4BP interaction is shown as the amount of protein S bound (relative to the amount bound in the absence of peptide) versus concentration of the nine peptides listed in Table 1: (o) SL1, (♦) SL2, (□) SL3, (+) SL4, (⋄) SL5, (●) SL6, (▾) SL7, (Δ) BD4 & (∇) BD6. In FIG. 5A, the result from an equilibrium binding assay using immobilized C4BP in microtiter wells and radiolabelled human protein S is shown. […] In FIG. 5B, the result from surface plasmon resonance assay on a BIAcore™ sensorchip is shown. The amount of protein S bound, X, was calculated from the observed signal intensity, S, compared to the maximum signal intensity in the absence of peptide Smax, as X=(S−0.04)/0.96 Smax.

[2] = target: T1, protein S-C4BP interaction; experiment: Peptide inhibition of the protein S-C4BP interaction in microtiter plates (equilibrium binding assay, 125I-labelled protein S tracer, immobilized C4BP); settings: displacement of 125I-labelled protein S from immobilized C4BP, EDTA buffer; read-out: half-maximum inhibition
Method: D. Peptide Inhibition of the Protein S-C4BP Interaction in Microtiter Plates.
(§2) Microtiter plates were coated with C4BP, 50 μl/well, 10 μg/ml in 0.075 M sodium carbonate buffer, pH 9.6. The plates were incubated over night at 4° C. and then washed with TBS, pH 7.5, containing 0.1% Tween 20. […] The wells were then washed and the amount of bound protein S detected using a γ-counter.
As disclosed in Section D, the synthetic peptides were tested for their ability to displace binding of a ^125I-labelled protein S tracer to immobilized C4BP (FIG. 5A).
as §1

C4BP [3] = target: T2, C4BP (Homo sapiens, UniProt P20851); experiment: Fluorescence polarization titration of peptides with C4BP (results not shown); format: binding; settings: read-out: dissociation constant KD of the peptide-C4BP complex
T2 sequence (P20851 18-252): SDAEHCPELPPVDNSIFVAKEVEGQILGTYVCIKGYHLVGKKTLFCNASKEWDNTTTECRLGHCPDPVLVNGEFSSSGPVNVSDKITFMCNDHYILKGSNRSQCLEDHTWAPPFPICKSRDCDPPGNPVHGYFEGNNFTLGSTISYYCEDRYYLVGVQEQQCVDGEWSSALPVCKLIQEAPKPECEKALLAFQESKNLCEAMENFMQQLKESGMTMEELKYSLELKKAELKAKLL
T2 sequence (P04003 49-597 partner): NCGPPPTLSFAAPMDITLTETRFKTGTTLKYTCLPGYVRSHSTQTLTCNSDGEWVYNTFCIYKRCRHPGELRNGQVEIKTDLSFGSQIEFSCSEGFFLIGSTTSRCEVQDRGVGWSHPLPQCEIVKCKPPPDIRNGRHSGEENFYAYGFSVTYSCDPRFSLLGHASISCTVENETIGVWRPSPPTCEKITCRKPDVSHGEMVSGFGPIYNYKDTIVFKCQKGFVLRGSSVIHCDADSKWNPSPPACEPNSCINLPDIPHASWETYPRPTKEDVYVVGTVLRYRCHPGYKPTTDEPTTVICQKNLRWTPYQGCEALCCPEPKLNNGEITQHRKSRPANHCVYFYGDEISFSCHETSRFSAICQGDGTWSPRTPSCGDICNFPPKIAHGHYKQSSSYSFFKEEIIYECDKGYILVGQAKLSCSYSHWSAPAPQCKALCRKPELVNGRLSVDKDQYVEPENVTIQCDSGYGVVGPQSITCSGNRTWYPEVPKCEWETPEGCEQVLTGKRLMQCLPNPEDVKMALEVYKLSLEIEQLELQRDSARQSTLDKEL
Source text: The difference in KD observed for the peptide and protein might in part be due to post translational modification of the protein.

C4BP [4] = target: T2, C4BP; settings: Ca2+-free; read-out: dissociation constant KD of the complex with C4BP; cited from earlier work
[5] = target: T3, C4b-binding protein (C4BP), species containing the protein S binding β-chain, purified from human plasma (human, UniProt P04003 49-597; P20851 18-252); experiment: competition, equilibrium binding in microtiter wells: peptide against a trace of 125I-labelled human protein S on immobilised C4BP, TBS with 10 mM EDTA, 4 °C overnight, gamma counting
T3 construct: mature; Isolated from human plasma as the protein S-C4BP complex, dissociated in 3 M guanidine-HCl and purified further; predominantly C4BPβ, and a minor proportion lacking the β-chain may be present; Immobilised on microtiter wells or on a CM5 sensorchip; also called C4BPβ
T3 sequence (looked up) 1: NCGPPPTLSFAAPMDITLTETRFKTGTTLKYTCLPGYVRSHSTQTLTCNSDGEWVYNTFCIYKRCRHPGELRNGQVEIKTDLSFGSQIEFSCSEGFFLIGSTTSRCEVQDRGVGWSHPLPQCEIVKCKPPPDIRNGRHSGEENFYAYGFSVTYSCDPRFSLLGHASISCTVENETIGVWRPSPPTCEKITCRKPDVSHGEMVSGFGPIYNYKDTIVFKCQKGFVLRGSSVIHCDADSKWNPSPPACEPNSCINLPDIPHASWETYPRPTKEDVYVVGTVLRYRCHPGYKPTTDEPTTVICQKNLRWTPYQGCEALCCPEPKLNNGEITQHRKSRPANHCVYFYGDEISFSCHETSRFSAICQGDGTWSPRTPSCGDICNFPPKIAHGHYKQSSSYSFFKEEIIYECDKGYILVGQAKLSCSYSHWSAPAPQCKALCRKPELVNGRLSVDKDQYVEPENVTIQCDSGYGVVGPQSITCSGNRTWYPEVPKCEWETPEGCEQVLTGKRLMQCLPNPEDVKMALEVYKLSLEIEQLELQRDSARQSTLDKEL
T3 sequence (looked up) 2: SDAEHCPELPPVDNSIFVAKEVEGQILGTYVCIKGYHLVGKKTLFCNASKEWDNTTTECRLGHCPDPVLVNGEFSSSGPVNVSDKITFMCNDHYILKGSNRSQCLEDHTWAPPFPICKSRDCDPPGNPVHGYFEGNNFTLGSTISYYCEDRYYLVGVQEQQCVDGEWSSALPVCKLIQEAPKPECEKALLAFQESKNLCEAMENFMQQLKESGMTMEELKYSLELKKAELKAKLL
Method: as §2
as §1, with “(◊)” for “(⋄)”, “(▼)” for “(▾)”, “(▽)” for “(∇)”, “$Smax$,” for “Smax,”, “$X=(S-0.04)/0.96\ Smax$.” for “X=(S−0.04)/0.96 Smax.”

[6] = target: T3, C4b-binding protein (C4BP), species …; experiment: SPR (BIAcore) competition: 50 nM human protein S mixed with peptide, flowed over immobilised C4BP (8000 RU), HC buffer; percent protein S bound calculated from the response
Method: The surface plasmon resonance studies were performed using a BIAcore™ apparatus from Pharmacia Biosensor AB. Immobilization of C4BP to the dextran coated gold surface of a sensorchip was performed at a flow rate of 5 μl/min, using HC as flow buffer. Equal volumes of 0.1 M NHS and 0.1 M EDC were first mixed, whereafter 30 μl of the mixture was flown over the sensorchip surface to activate the carboxymethylated dextran. C4BP was then injected over the sensorchip (40 μl of a 60 μg/ml solution in 10 mM NaOAc at pH 4.75), whereafter unreacted NHS-ester groups were blocked by 15 μl 1M ethanolamine (pH 8.5). […] Protein S association was monitored with 50 nM human protein S in HC buffer in a continuous flow of 1 μl per minute during 45 minutes. […] The percent protein S bound, X, was calculated as $$X=(S-0.04Smax)/0.96Smax$$
In these figures, peptide inhibition of the protein S-C4BP interaction is shown as the amount of protein S bound (relative to the amount bound in the absence of peptide) versus concentration of the nine peptides listed in Table 1: (o) SL1, (♦) SL2, (□) SL3, (+) SL4, (◊) SL5, (●) SL6, (▼) SL7, (Δ) BD4 & (▽) BD6. […] The amount of protein S bound, X, was calculated from the observed signal intensity, S, compared to the maximum signal intensity in the absence of peptide $Smax$, as $X=(S-0.04)/0.96\ Smax$.

[7] = target: T3, C4b-binding protein (C4BP), species …; experiment: unlabelled protein S competing with 125I-protein S tracer for immobilised C4BP in microtiter wells, EDTA buffer
Method: as §2
as §1, with “(◊)” for “(⋄)”, “(▼)” for “(▾)”, “(▽)” for “(∇)”, “$Smax$,” for “Smax,”, “$X=(S-0.04)/0.96\ Smax$.” for “X=(S−0.04)/0.96 Smax.”

Molecule: SGIAQFHIDYNNVSSAEGWHVN [SL6]
- IC50 ([1]; 50 nM human protein S, immobilized C4BP, read-out: half maximum inhibition, peptide concentration): 30 to 120 µM
- IC50 [2]: 100 to 200 µM
- Kd (C4BP [3]): ≤ 1 µM

Molecule: YNGCMEVNINGVQLDLDEAISKHNDIRAHSCPSV (disulfide 4-31 (inferred)) [BD6, reference compound]
- effect on binding of human protein S to C4BP (SPR response) ([1]; 50 nM protein S, peptide up to 100 μM (2000-fold excess)): the same response was observed as with protein S alone
- inhibition of the protein S-C4BP interaction (summary of the above tests) [1]: gave no inhibitory effect
- inhibition of the protein S-C4BP interaction (summary of the above tests) ([1]; listed as 595–628): did not show any inhibitory effect

Molecule: plasma purified human protein S: plasma purified human protein S, unlabelled competitor of radiolabelled protein S
- Kd (C4BP [4]): 0.0065 µM

Molecule: LVTVEKGSYYPGSGIAQFHIDYNNVSSAEGWHVN [SL7 synthetic peptide (protein S residues 435-468)]
- IC50 (read off the curve) [5]: ~90 µM

Molecule: EKGSYYPGSGIAQFHIDYNNVS [SL2 synthetic peptide (protein S residues 439-460)]
- IC50 (read off the curve) [6]: ~40 µM
- IC50 (read off the curve) [5]: ~200 µM

Molecule: SGIAQFHIDYNNVSSAEGWHVN [SL6 synthetic peptide (protein S residues 447-468)]
- IC50 (read off the curve) [6]: ~30 µM

B1: plasma purified human protein S (other, UniProt P07225 42-676, looked up)
chain: ANSLLEETKQGNLERECIEELCNKEEAREVFENDPETDYFYPKYLVCLRSFQTGLFTAARQSTNAYPDLRSCVNAIPDQCSPLPCNEDGYMSCKDGKASFTCTCKPGWQGEKCEFDINECKDPSNINGGCSQICDNTPGSYHCSCKNGFVMLSNKKDCKDVDECSLKPSICGTAVCKNIPGDFECECPEGYRYNLKSKSCEDIDECSENMCAQLCVNYPGGYTCYCDGKKGFKLAQDQKSCEVVSVCLPLNLDTKYELLYLAEQFAGVVLYLKFRLPEISRFSAEFDFRTYDSEGVILYAESIDHSAWLLIALRGGKIEVQLKNEHTSKITTGGDVINNGLWNMVSVEELEHSISIKIAKEAVMDINKPGPLFKPENGLLETKVYFAGFPRKVESELIKPINPRLDGCIRSWNLMKQGASGIKEIIQEKQNKHCLVTVEKGSYYPGSGIAQFHIDYNNVSSAEGWHVNVTLNIRPSTGTGVMLALVSGNNTVPFAVSLVDSTSEKSQDILLSVENTVIYRIQALSLCSDQQSHLEFRVNRNNLELSTPLKIETISHEDLQRQLAVLDKAMKAKVATYLGGLPDVPFSATPVNAFYNGCMEVNINGVQLDLDEAISKHNDIRAHSCPSVWKKTKNS
modifications: 125I-labelled where used as tracer in the microtiter equilibrium assay
notes: mature; also called PS; free protein S
- IC50 [7]: ~2 µM
